Source: US20190040115A1 (IMMATICS BIOTECHNOLOGIES, published 2019)

Target: T1, HLA-A*02:01 (human)
T1 construct: captured on streptavidin plates; also called peptide-receptive MHC molecules
Assay: UV peptide exchange ELISA (anti-b2m); yield grade: + >10%, ++ >20%, +++ >50, ++++ >75%
Source text: Candidate peptides for T cell based therapies according to the present invention were further tested for their MHC binding capacity (affinity). The individual peptide-MHC complexes were produced by UV-ligand exchange, where a UV-sensitive peptide is cleaved upon UV-irradiation, and exchanged with the peptide of interest as analyzed. Only peptide candidates that can effectively bind and stabilize the peptide-receptive MHC molecules prevent dissociation of the MHC complexes. To determine the yield of the exchange reaction, an ELISA was performed based on the detection of the light chain (β2m) of stabilized MHC complexes. The assay was performed as generally described in Rodenko et al. (Rodenko et al., 2006).
96 well MAXISorp plates (NUNC) were coated over night with 2 ug/ml streptavidin in PBS at room temperature, washed 4× and blocked for 1 h at 37° C. in 2% BSA containing blocking buffer. Refolded HLA-A*02:01/MLA-001 monomers served as standards, covering the range of 15-500 ng/ml. Peptide-MHC monomers of the UV-exchange reaction were diluted 100 fold in blocking buffer. Samples were incubated for 1 h at 37° C., washed four times, incubated with 2 ug/ml HRP conjugated anti-β2m for 1 h at 37° C., washed again and detected with TMB solution that is stopped with […]. Absorption was measured at 450 nm. Candidate peptides that show a high exchange yield (preferably higher than 50%, most preferred higher than 75%) are generally preferred for a generation and production of antibodies or fragments thereof, and/or T cell receptors or fragments thereof, as they show sufficient avidity to the MHC molecules and prevent dissociation of the MHC complexes.

Binder | peptide exchange yield [%]
FLDASGAKL | > 75
KVSGVILSV | > 75
LLDEVLHTM | > 75
KVLGDVIEV | > 75
GLAGFFASV | > 75
ILADATAKM | > 75
ILDDSALYL | > 75
RLMANPEALKI | 50 to 75
FLDSLIYGA | > 75
TLYEQEIEV | > 75
GLVDVLYTA | 50 to 75
SLIDFVVTC | 50 to 75
ILWDTLLRL | > 75
ALFFQLVDV | 20 to 50
KLKEAVEAI | 20 to 50
HLFETISQA | 50 to 75
TILATVPLV | > 75
FAYDGKDYIA | > 75
SVALVIHNV | > 75
VLPDDLSGV | 50 to 75
IMEDFTTFL | > 75
GVGPVPARA | 50 to 75
VLFSSPPVILL | > 75

Binder | peptide exchange yield [%]
YVIDPIKGL | 50 to 75
RLEAYLARV | 50 to 75
ALDPAYTTL | 50 to 75
TLKDIVQTV | 50 to 75
KLFPSPLQTL | > 75
KLLAATLLL | > 75
GLIDLEANYL | > 75
ALDDISESI | > 75
SLADVVDTL | > 75
KLAEALYIA | 50 to 75
FVDGSAIQV | 50 to 75
ALDDIIYRA | 50 to 75
TLLEGLTEL | 50 to 75
YLDKTFYNL | 50 to 75
ALFPGDVDRL | 50 to 75
TLDGNPFLV | 50 to 75
VLDSVDVRL | > 75
VLYEMLYGL | > 75
ALMDTDGSGKLNL | 50 to 75
TLPNIYVTL | 50 to 75
FLGEPASYLYL | > 75
FLDDQETRL | 50 to 75
TLLESIQHV | > 75

Binder | peptide exchange yield [%]
ILDDQTNKL | 50 to 75
FAYDGKDYIAL | 50 to 75
SIIPPLFTV | > 75
AVDATVNQV | 50 to 75
TLGTATFTV | > 75
IQSETTVTV | > 75
FLPAGIVAV | > 75
ILPSNLLTV | 50 to 75
ALDDTVLQV | 50 to 75
FVDPNGKISL | 50 to 75
YLDTFALKL | > 75
GLCDSIITI | > 75
GLFPSNFVTA | > 75
GVVHGVATV | > 75
ALIEVLQPLI | > 75
VLYDPVVGC | > 75
FLDHEMVFL | > 75
SVDEVEISV | 50 to 75
TLISDIEAVKA | 50 to 75
KLIPSIIVL | 50 to 75
RLDEVSREL | 50 to 75
